The results in this text go back to IntAct's records for PubMed 20696938.

B1: DNA topoisomerase 4 subunit A (Escherichia coli (strain K12)), P0AFI2 (parent)
chain: MSDMAERLALHEFTENAYLNYSMYVIMDRALPFIGDGLKPVQRRIVYAMSELGLNASAKFKKSARTVGDVLGKYHPHGDSACYEAMVLMAQPFSYRYPLVDGQGNWGAPDDPKSFAAMRYTESRLSKYSELLLSELGQGTADWVPNFDGTLQEPKMLPARLPNILLNGTTGIAVGMATDIPPHNLREVAQAAIALIDQPKTTLDQLLDIVQGPDYPTEAEIITSRAEIRKIYENGRGSVRMRAVWKKEDGAVVISALPHQVSGARVLEQIAAQMRNKKLPMVDDLRDESDHENPTRLVIVPRSNRVDMDQVMNHLFATTDLEKSYRINLNMIGLDGRPAVKNLLEILSEWLVFRRDTVRRRLNYRLEKVLKRLHILEGLLVAFLNIDEVIEIIRNEDEPKPALMSRFGLTETQAEAILELKLRHLAKLEEMKIRGEQSELEKERDQLQGILASERKMNNLLKKELQADAQAYGDDRRSPLQEREEAKAMSEHDMLPSEPVTIVLSQMGWVRSAKGHDIDAPGLNYKAGDSFKAAVKGKSNQPVVFVDSTGRSYAIDPITLPSARGQGEPLTGKLTLPPGATVDHMLMESDDQKLLMASDAGYGFVCTFNDLVARNRAGKALITLPENAHVMPPVVIEDASDMLLAITQAGRMLMFPVSDLPQLSKGKGNKIINIPSAEAARGEDGLAQLYVLPPQSTLTIHVGKRKIKLRPEELQKVTGERGRRGTLMRGLQRIDRVEIDSPRRASSGDSEE
partner: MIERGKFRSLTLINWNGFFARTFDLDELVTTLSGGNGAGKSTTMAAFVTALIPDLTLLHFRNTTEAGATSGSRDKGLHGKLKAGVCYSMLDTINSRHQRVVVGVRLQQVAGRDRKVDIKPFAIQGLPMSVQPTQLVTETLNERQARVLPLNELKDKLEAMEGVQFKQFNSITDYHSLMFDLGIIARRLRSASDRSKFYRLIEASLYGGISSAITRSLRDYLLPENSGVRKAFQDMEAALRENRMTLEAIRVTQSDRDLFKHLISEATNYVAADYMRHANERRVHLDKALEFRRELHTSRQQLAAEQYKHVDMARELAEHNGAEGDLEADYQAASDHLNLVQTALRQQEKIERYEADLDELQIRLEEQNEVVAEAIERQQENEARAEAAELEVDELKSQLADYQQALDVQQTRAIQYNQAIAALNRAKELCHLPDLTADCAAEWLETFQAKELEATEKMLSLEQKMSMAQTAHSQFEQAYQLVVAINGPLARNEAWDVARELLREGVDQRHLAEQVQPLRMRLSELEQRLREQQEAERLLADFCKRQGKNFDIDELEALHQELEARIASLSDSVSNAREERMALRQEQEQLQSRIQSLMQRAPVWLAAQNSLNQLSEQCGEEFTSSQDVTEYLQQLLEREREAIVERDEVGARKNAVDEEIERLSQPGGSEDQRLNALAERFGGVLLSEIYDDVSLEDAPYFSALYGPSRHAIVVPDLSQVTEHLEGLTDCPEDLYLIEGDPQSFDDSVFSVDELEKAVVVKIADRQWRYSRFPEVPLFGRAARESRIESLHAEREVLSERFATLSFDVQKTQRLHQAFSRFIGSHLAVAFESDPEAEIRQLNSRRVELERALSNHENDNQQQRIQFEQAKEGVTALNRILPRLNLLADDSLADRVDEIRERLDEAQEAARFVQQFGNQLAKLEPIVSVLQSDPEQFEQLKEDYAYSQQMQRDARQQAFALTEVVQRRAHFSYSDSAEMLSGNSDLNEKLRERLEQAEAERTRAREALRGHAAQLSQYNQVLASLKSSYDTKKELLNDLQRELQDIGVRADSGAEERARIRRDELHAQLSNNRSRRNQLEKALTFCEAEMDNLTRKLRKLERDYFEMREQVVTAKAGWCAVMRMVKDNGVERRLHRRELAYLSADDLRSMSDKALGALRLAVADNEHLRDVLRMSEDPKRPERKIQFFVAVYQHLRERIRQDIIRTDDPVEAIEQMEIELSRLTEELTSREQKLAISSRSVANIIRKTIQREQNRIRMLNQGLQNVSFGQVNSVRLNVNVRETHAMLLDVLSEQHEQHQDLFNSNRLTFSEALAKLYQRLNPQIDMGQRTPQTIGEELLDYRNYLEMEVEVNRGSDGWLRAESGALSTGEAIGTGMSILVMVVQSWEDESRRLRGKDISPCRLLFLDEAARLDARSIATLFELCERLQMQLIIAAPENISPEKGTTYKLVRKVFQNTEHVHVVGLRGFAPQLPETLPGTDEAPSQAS

In the test the parent is B1. The following applies: with mukb_ecoli mukB.
Consider R705E, for which the “effect of a mutation on the interaction” value was “disrupting interaction”. Turning to R729A, the “effect of a mutation on the interaction” value is given as “disrupting interaction”. Consider R705E;R729A, for which the “effect of a mutation on the interaction” value is recorded as “disrupting interaction”.
